Assay results from article PMC9789324 (Food Chemistry: Molecular Sciences, 2022).
Each block holds one molecule with its values, some of them ahead of it.

Assays:
Test in all cases: crystal structure
[1] = target: Len c 1, lentil vicilin (7S globulin) core region (Lens culinaris Medicus (lentil))
[2] = target: Pis s 1, pea vicilin (7S globulin) core region (Pisum sativum L. (pea))
crystal structure = target: the molecule itself

stoichiometry N [1]: 3
Molecule: Len c 1, lentil vicilin (7S globulin) core region (domain or fragment)

stoichiometry N [2]: 3
Molecule: Pis s 1, pea vicilin (7S globulin) core region (domain or fragment)

B1: Pis s 2, pea convicilin (7S globulin) core region (domain or fragment, Pisum sativum L. (pea))
chain: SQERRNPFLFKSNKFLTLFENENGHIRLLQRFDKRSDLFENLQNYRLVEYRAKPHTIFLPQHIDADLILVVLSGKAILTVLSPNDRNSYNLERGDTIKLPAGTTSYLVNQDDEEDLRLVDLVIPVNGPGKFEAFDLAKNKNQYLRGFSKNILEASYNTRYETIEKVLLEEQEKDRKRRQQGEETDAIVKVSREQIEELKKLAKSSSKKSLPSEFEPINLRSHKPEYSNKFGKLFEITPEKKYPQLQDLDLFVSCVEINEGALMLPHYNSRAIVVLLVNEGKGNLELLGLKNEQQEREDRKERNNEVQRYEARLSPGDVVIIPAGHPVAITASSNLNLLGFGINAENNERNFLSGSDDNVISQIENPVKELTFPGSVQEINRLIKNQKQSHFANA
stoichiometry N (crystal structure): 3
